According to the supplement of paper PMC7877785:
± gives the uncertainty stated by the source.

Test: self-splicing fitness, log relative to wild type (ln ratio); higher = more splicing; Tetrahymena group I intron in knt gene, E. coli kanamycin selection, DiMSum; sequences stand for … in CUCUCU…GGAGGGAAAAGUUAUCAGGCAUGCACCUGGUAGCUAGUCUUUAAACCAAUAGAUUGCAUCGGUUUAAAAGGCAAGACCGUCAAAUUGCGGGAAAGGGGUCAACAGCCGUUCAGUACCAAGUCUCAGGGGAAACUUUGAGAUGGCCUUGCAAAGGGUAUGGUAAUAAGCUGACGGACAUGGUCCUAACCACGCAGCCAAGUCCUAAGUCAACAGAUCUUCUGUUGAUAUGGAUGCAGUUCACAGACUAAAUGUCGGUCGGGGAAGAUGUAUUCUUCUCAUAAGAUAUAGUCGGACCUCUCCUUAAUGGGAGCUAGCGGAUGAAGUGAUGCAACACUGGAGCCGCUGGGAACUAAUUUGUAUGCGAAAGUAUAUUGAUUAGUUUUGGAGUACUCGUGGUCG
How it was run: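 Colonies from six replicate transformations of E. coli BL21(DE3) were pooled and amplicon-sequenced on an Illumina HiSeq 2500. The library placed an intron with all eight P1ex-region nucleotides randomised inside the knt kanamycin-resistance gene on pET-22b(+), and cells grew overnight at 37°C or 30°C on LB agar with or without 25 μg/mL kanamycin (plus 100 μg/mL carbenicillin, 50 μM IPTG, 0.2% rhamnose). Fitness is the DiMSum error-weighted combination of wild-type-normalised replicate fold changes, kanamycin versus none.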

Sequence	self-splicing fitness (ln) (30 °C)	self-splicing fitness (ln) (37 °C)
GACAAGCAAUAUUACGCGGU	-3.2 ± 0.24	-2.48 ± 0.24
CCCUAGCAAUAUUACGCCAC	-2.88 ± 0.27	-1.6 ± 0.26
GUUCAGCAAUAUUACGGUGG	-2.39 ± 0.18	-1.96 ± 0.19
UGAUAGCAAUAUUACGUGUA	-2.89 ± 0.18	-1.38 ± 0.13
CUUAAGCAAUAUUACGAACC	–	-0.593 ± 0.37
GAGUAGCAAUAUUACGCCAG	-3.3 ± 0.26	-2.75 ± 0.48
GCUCAGCAAUAUUACGUCUU	-0.48 ± 0.054	-0.252 ± 0.066
AUUCAGCAAUAUUACGCGAG	-0.677 ± 0.065	-0.126 ± 0.079
GUUCAGCAAUAUUACGUAAG	-0.609 ± 0.061	0.5 ± 0.083
CCAUAGCAAUAUUACGUUGU	-4.79 ± 0.41	-2.66 ± 0.19
GGUUAGCAAUAUUACGGACA	-0.743 ± 0.12	0.373 ± 0.15
CAGCAGCAAUAUUACGGCGA	-0.356 ± 0.11	-0.114 ± 0.12
GACAAGCAAUAUUACGUGCA	-0.912 ± 0.06	0.0273 ± 0.077
GGCCAGCAAUAUUACGUUAA	-3.51 ± 0.29	-2.62 ± 0.19
UCAGAGCAAUAUUACGGUUC	-3.72 ± 0.33	-1.84 ± 0.21
GAAUAGCAAUAUUACGAUAC	-1.47 ± 0.15	-0.123 ± 0.17
GUUUAGCAAUAUUACGCUCA	0.0718 ± 0.14	0.432 ± 0.2
AGAGAGCAAUAUUACGUUGC	-2.89 ± 0.23	-2.89 ± 0.32
GAUUAGCAAUAUUACGUCGG	-2.66 ± 0.24	-3.05 ± 0.29
GAGUAGCAAUAUUACGACCG	-3.1 ± 0.39	-0.977 ± 0.37
UAGUAGCAAUAUUACGCUCG	0.127 ± 0.15	0.103 ± 0.19
GGCUAGCAAUAUUACGUUAC	-1.55 ± 0.069	-0.888 ± 0.093
AUGCAGCAAUAUUACGACUC	-0.57 ± 0.11	0.501 ± 0.11
CGAGAGCAAUAUUACGCAAU	-2.58 ± 0.36	–
CGCUAGCAAUAUUACGAGGG	-2.59 ± 0.11	-2.44 ± 0.17
CAAGAGCAAUAUUACGGUAC	-3.2 ± 0.26	-2.37 ± 0.21

Sequence	self-splicing fitness (ln) (30 °C)	self-splicing fitness (ln) (37 °C)
CAACAGCAAUAUUACGCACA	-1.23 ± 0.077	-0.561 ± 0.083
UUACAGCAAUAUUACGCGAA	-1.02 ± 0.12	-0.94 ± 0.11
GAAGAGCAAUAUUACGUGGU	-4.07 ± 0.23	-3.01 ± 0.32
GGCCAGCAAUAUUACGGCGG	-0.775 ± 0.1	-1.53 ± 0.15
UGGAAGCAAUAUUACGUACA	-0.926 ± 0.1	0.227 ± 0.11
CUUUAGCAAUAUUACGUACG	-0.271 ± 0.098	0.109 ± 0.12
GGCGAGCAAUAUUACGCGGG	–	-2.89 ± 0.38
GAUGAGCAAUAUUACGAGUU	-2.18 ± 0.22	-1.47 ± 0.24
AGUAAGCAAUAUUACGAAGG	-3.7 ± 0.2	-2.07 ± 0.26
UUUUAGCAAUAUUACGGCUA	-2.21 ± 0.44	-0.365 ± 0.31
AGGCAGCAAUAUUACGACCU	-1.51 ± 0.14	-1.28 ± 0.17
CGGCAGCAAUAUUACGCCAU	-3.11 ± 0.2	-1.6 ± 0.16
GGGAAGCAAUAUUACGUCUC	-3.97 ± 0.37	-3 ± 0.35
CGCUAGCAAUAUUACGGCAU	-1.89 ± 0.093	-0.622 ± 0.083
CCGUAGCAAUAUUACGAUGU	-4.42 ± 0.33	-1.79 ± 0.18
UGUCAGCAAUAUUACGCAAU	-1.81 ± 0.14	-2.24 ± 0.2
UAGUAGCAAUAUUACGUAUA	-1.69 ± 0.25	-1.14 ± 0.27
ACCUAGCAAUAUUACGGAUU	-1.23 ± 0.072	0.134 ± 0.088
CGCCAGCAAUAUUACGUCAG	-0.444 ± 0.073	0.203 ± 0.095
GAGCAGCAAUAUUACGGGUA	-3.4 ± 0.16	-2.36 ± 0.14
UGGAAGCAAUAUUACGUUAU	-2.23 ± 0.14	-3.09 ± 0.2
AACCAGCAAUAUUACGAUCU	-0.425 ± 0.052	0.391 ± 0.074
CAUGAGCAAUAUUACGCAGC	-3.08 ± 0.38	-2.32 ± 0.34
GGUUAGCAAUAUUACGUGGA	-2.72 ± 0.2	-1.08 ± 0.14
AGACAGCAAUAUUACGUAAC	-3.82 ± 0.15	-1.69 ± 0.15
CAACAGCAAUAUUACGUGUA	-2.41 ± 0.076	-1.76 ± 0.075

Sequence	self-splicing fitness (ln) (30 °C)	self-splicing fitness (ln) (37 °C)
GUAGAGCAAUAUUACGCCGG	-1.41 ± 0.21	-0.336 ± 0.47
CCGCAGCAAUAUUACGUGGG	-3.41 ± 0.12	-3.02 ± 0.17
AAACAGCAAUAUUACGGGAC	-3.74 ± 0.25	-2.35 ± 0.26
UAUCAGCAAUAUUACGAACG	0.353 ± 0.085	0.157 ± 0.094
UAUUAGCAAUAUUACGUCCC	-2.83 ± 0.42	-0.713 ± 0.46
CCGAAGCAAUAUUACGGUGA	–	-3.25 ± 0.43
ACUGAGCAAUAUUACGUGAU	-3.6 ± 0.14	-1.76 ± 0.097
GUAAAGCAAUAUUACGUGCC	-3.19 ± 0.16	-1.93 ± 0.17
AAACAGCAAUAUUACGGUGG	-2.61 ± 0.096	-1.93 ± 0.12
GUCUAGCAAUAUUACGCCCC	0.281 ± 0.13	-0.182 ± 0.12
UGCCAGCAAUAUUACGAUUA	-0.904 ± 0.075	-0.743 ± 0.089
GCUCAGCAAUAUUACGCCUA	-0.718 ± 0.23	-0.514 ± 0.22
CUUGAGCAAUAUUACGUGAC	-2.55 ± 0.24	-1.08 ± 0.19
CUAAAGCAAUAUUACGAUUU	-4.23 ± 0.28	-2.46 ± 0.32
UGGCAGCAAUAUUACGAGAG	-2.95 ± 0.21	-2.74 ± 0.29
UAGCAGCAAUAUUACGACGC	-3.94 ± 0.31	-1.82 ± 0.19
UGUUAGCAAUAUUACGAGCU	-0.427 ± 0.16	0.455 ± 0.19
CUCUAGCAAUAUUACGCCCU	-3.28 ± 0.26	-2.2 ± 0.19
AUCGAGCAAUAUUACGUGCG	-4 ± 0.29	-1.73 ± 0.13
CGAGAGCAAUAUUACGUGGU	–	-3.2 ± 0.37
GAAUAGCAAUAUUACGAGAC	–	-0.147 ± 0.18
CAGGAGCAAUAUUACGGUGG	-1.91 ± 0.14	0.146 ± 0.1
UACGAGCAAUAUUACGGUGU	–	-3.09 ± 0.29
AUGUAGCAAUAUUACGACCC	-0.73 ± 0.26	-0.517 ± 0.3
CAUAAGCAAUAUUACGAGGA	-3.13 ± 0.18	-2.23 ± 0.21
